The test deals with T1, purified α5ß1 ectodomain protein (human, UniProt P08648 42-995; P05556 21-728).
T1 construct: signal peptide in the construct; human integrin alpha-5, residues 1-995; human integrin beta-1, residues 1-728; Thrombin cleavage site between the integrin and the Fc; residues of the site may remain; also called purified and untagged α5ß1; α5ß1 integrin; not shown: Fc, C-terminal, cleaved
The experiment in a line: SPR; ProteOn XPR36, GLC chip; rhTie1 (4750 RU) and rhTie2 (6400 RU) amine-coupled; α5ß1 at 3 μM flowed at 60 μL/min for 3 min; 25 degrees Celsius; 20 mM Tris, 100 mM NaCl, 1 mM MnCl2, 2 mM CaCl2 pH 7.5; BSA channel subtracted. Particulars: both partners purified. A general note: Surface plasmon resonance follows binding to a sensor surface in real time, without labels.

The record followed here is PMC5047623 (PLoS ONE, 2016).

T1 sequence (P08648 42-995, chain 1 of 2): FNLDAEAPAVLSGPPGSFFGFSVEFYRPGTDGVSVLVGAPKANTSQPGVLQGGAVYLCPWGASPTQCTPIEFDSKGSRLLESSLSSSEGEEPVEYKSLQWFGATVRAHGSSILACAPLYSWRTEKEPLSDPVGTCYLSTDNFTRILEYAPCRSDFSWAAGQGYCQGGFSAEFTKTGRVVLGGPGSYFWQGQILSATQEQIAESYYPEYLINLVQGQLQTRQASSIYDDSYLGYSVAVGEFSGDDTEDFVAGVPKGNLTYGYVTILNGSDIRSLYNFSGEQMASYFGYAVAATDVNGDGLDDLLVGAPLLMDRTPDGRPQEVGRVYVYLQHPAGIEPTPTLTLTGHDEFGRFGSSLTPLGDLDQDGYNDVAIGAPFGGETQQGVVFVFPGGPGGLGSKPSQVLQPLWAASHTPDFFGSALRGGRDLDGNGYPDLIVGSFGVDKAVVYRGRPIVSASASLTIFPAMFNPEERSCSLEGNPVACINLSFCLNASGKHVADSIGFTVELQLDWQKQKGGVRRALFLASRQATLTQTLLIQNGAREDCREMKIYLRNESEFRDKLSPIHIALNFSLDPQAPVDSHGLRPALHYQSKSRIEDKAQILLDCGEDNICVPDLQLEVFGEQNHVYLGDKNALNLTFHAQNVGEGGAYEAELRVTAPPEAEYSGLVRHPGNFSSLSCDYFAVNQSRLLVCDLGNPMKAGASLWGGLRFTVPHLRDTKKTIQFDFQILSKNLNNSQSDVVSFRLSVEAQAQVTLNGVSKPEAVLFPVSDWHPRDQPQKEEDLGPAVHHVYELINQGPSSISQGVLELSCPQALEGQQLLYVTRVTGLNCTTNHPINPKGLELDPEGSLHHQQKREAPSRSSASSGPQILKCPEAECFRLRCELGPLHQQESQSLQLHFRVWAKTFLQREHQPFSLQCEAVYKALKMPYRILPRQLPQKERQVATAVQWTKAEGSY
T1 sequence (P05556 21-728, chain 2 of 2): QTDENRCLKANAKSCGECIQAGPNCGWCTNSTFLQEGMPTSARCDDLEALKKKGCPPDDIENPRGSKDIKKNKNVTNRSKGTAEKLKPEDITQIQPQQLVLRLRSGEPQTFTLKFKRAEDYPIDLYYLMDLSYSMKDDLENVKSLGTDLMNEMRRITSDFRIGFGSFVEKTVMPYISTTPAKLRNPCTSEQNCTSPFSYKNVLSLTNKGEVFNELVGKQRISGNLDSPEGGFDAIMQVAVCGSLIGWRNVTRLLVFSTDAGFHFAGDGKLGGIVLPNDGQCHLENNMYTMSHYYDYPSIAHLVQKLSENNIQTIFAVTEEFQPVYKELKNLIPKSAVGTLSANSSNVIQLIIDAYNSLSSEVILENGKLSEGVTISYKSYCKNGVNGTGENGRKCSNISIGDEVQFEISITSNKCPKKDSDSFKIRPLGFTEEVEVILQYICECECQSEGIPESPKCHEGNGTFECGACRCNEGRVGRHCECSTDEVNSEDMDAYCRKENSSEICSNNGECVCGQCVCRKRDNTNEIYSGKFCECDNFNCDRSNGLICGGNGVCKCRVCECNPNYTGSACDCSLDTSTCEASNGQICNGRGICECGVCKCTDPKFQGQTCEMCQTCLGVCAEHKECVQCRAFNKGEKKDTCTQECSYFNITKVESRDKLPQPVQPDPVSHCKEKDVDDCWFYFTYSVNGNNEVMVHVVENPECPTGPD

B1: recombinant human Tie1 (rhTie1) extracellular domain, Fc tagged (Fc fusion, UniProt P35590 22-759, looked up)
chain: AVDLTLLANLRLTDPQRFFLTCVSGEAGAGRGSDAWGPPLLLEKDDRIVRTPPGPPLRLARNGSHQVTLRGFSKPSDLVGVFSCVGGAGARRTRVIYVHNSPGAHLLPDKVTHTVNKGDTAVLSARVHKEKQTDVIWKSNGSYFYTLDWHEAQDGRFLLQLPNVQPPSSGIYSATYLEASPLGSAFFRLIVRGCGAGRWGPGCTKECPGCLHGGVCHDHDGECVCPPGFTGTRCEQACREGRFGQSCQEQCPGISGCRGLTFCLPDPYGCSCGSGWRGSQCQEACAPGHFGADCRLQCQCQNGGTCDRFSGCVCPSGWHGVHCEKSDRIPQILNMASELEFNLETMPRINCAAAGNPFPVRGSIELRKPDGTVLLSTKAIVEPEKTTAEFEVPRLVLADSGFWECRVSTSGGQDSRRFKVNVKVPPVPLAAPRLLTKQSRQLVVSPLVSFSGDGPISTVRLHYRPQDSTMDWSTIVVDPSENVTLMNLRPKTGYSVRVQLSRPGEGGEGAWGPPTLMTTDCPEPLLQPWLEGWHVEGTDRLRVSWSLPLVPGPLVGDGFLLRLWDGTRGQERRENVSSPQARTALLTGLTPGTHYQLDVQLYHCTLLGPASPPAHVLLPPSGPPAPRHLHAQALSDSEIQLTWKHPEALPGPISKYVVEVQVAGGAGDPLWIDVDRPEETSTIIRGLNASTRYLFRMRASIQGLGDWSNTVEESTLGNGLQAEGPVQESRAAEEGLDQ
notes: human Tie1, full extracellular domain; amine-coupled to a GLC sensor chip; also called immobilized Tie1
On to B1, for which the binding result is “binds”.
